Molecular target: YFP–CPR5 (translational fusion of the yellow fluorescent protein to CPR5) (Arabidopsis thaliana) (UniProt Q9LV85)
Test: FRET or BRET

Chain of UniProt Q9LV85 (Q9LV85 whole entry, the tested form may be a part): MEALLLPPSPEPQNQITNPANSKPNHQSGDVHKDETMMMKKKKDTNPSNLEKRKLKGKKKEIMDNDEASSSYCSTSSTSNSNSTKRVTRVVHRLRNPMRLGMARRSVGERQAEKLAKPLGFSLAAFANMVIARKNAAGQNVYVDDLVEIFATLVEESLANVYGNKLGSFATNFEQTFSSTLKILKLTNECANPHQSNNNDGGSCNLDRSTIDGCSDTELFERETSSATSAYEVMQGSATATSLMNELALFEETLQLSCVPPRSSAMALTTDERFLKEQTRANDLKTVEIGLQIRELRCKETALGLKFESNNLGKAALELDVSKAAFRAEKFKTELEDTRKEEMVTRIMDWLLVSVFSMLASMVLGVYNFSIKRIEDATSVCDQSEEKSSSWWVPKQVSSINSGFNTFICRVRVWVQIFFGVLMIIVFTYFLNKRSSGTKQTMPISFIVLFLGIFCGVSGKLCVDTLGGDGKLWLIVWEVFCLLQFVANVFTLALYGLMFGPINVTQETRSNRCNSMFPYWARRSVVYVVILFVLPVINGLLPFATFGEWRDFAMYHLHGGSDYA

CFP–sbZIP60 (cyan fluorescent protein fused to spliced full-length bZIP60) (natural protein)
FRET efficiency: 10%
